This experiment addresses COX-2 (prostaglandin endoperoxide synthase 2, PTGS2), purified His-tagged protein (UniProt P35354). The experiment in a line: SPR; COX-2 immobilised on a CM5 chip, cyclosporine A flowed at increasing concentrations; 10 mM Hepes pH 7.2, 150 mM NaCl, 1 mM EDTA, 0.005% P20, 2% ethanol; 25 °C, 30 µl/min; 1:1 Langmuir model; triplicate. A general note: In SPR one partner is held on a chip, and binding of the other changes the refractive index at the surface.

This is an account of results in paper PMC6232179.

COX-2 (prostaglandin endoperoxide synthase 2, PTGS2), purified His-tagged protein, sequence (P35354 18-604): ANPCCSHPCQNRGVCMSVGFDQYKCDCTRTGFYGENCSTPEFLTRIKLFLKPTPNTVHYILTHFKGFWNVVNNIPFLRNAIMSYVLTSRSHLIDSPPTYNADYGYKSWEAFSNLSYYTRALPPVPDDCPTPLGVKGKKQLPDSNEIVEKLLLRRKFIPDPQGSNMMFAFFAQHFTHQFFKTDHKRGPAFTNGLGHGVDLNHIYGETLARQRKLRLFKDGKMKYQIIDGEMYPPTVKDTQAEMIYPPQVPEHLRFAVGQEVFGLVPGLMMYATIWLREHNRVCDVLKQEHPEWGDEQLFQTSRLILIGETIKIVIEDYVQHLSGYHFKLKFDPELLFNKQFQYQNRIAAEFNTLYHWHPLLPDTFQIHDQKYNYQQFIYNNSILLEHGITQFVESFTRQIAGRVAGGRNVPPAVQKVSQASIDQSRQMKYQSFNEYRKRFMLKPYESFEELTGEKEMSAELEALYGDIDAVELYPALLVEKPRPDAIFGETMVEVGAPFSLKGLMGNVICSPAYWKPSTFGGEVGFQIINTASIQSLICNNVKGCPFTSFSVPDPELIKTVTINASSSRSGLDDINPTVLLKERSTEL

What is called Kd is the equilibrium constant for the complex coming apart. Substance Cyclosporine A (peptide) displayed a Kd of 895 nM.
